The record followed here is US20240280570A1 (KING ABDULLAH UNIVERSITY OF SCIENCE AND TECHNOLOGY, published 2024).

This experiment concerns the target T1, FRB-24-mCherry-Wp3-TwinStrep.
T1 construct: also called Negative control (mCherry); FRB-mCherry fusion
Description: OECT transfer curves (ID against VG), PEDOT:PSS channel.

B1: GFPnanobody-8aa-SpyCatcher-3C cleavage site-His10 (VHH)
VHH: QVQLVESGGALVQPGGSLRLSCAASGFPVNRYSMRWYRQAPGKEREWVAGMSSAGDRSSYEDSVKGRFTISRDDARNTVYLQMNSLKPEDTAVYYCNVNVGFEYWGQGTQVTVSS
notes: also called anti-GFP nanobody; GFP nanobody-SpyCatcher
On to B1, for which the binding result is recorded as “no binding (tested: 2 x 10^-8 M)”.
